Two molecules from PMC11470957 (2024) can be followed below.

B2: BRD3^BD2 (second bromodomain of BRD3, residues 306-416) (domain or fragment)
chain: GKLSEHLRYCDSILREMLSKKHAAYAWPFYKPVDAEALELHDYHDIIKHPMDLSTVKRKMDGREYPDAQGFAADVRLMFSNCYKYNPPDHEVVAMARKLQDVFEMRFAKMP

Test [1] concerns the target T1, BRD4^BD2 G-to-E swap mutant (G386E) (UniProt O60885 334-460, G-to-E swap mutation (G386)). The test can be described thus: ITC; ternary, with SJ46421. For orientation: Isothermal titration calorimetry measures the heat released or taken up as one component is titrated into another.
The target in test [2] is T2, BRD2^BD2 G-to-E swap mutant (G382E) (UniProt P25440 344-455, G-to-E swap mutation (G382)). The test can be described thus: ITC; ternary, with SJ46421.
Test [3] has as its target T3, BRD3^BD2 E344G swap mutant (UniProt Q15059 306-416, E344G). Briefly: ITC; ternary, with SJ46421.
Test [4] addresses T4, BRD4^BD2 (second bromodomain of BRD4, residues 334-460) (UniProt O60885 334-460). Briefly: ITC; ternary, BRD4 BD2 pre-bound to PROTAC SJ46421.
Test [5] deals with T5, BRD2^BD2 (second bromodomain of BRD2, residues 344-455) (UniProt P25440 344-455). Briefly: ITC; ternary, BRD2 BD2 pre-bound to PROTAC SJ46421.
For test [6], the target named is T4, BRD4^BD2 (second bromodomain of BRD4, …). Briefly: ITC; ternary complex with PROTAC SJ46421 (BRD4BD2-SJ46421 in cell).
Test [7] has as its target B2. The test can be described thus: ITC; ternary complex with PROTAC SJ46423 (BRD3BD2-SJ46423 in cell).
In test [8] the target is B2. The test can be described thus: ITC; ternary complex with PROTAC SJ46421 (BRD3BD2-SJ46421 in cell).
Test [9] deals with T1, BRD4^BD2 G-to-E swap mutant (G386E). Briefly: ITC; ternary complex with PROTAC SJ46421.
For test [10], the target named is T2, BRD2^BD2 G-to-E swap mutant (G382E). Briefly: ITC; ternary complex with PROTAC SJ46421.
In test [11] the target is T3, BRD3^BD2 E344G swap mutant. The test can be described thus: ITC; ternary complex with PROTAC SJ46421.
For test [12], the target named is B2. Briefly: ITC; ternary, BRD3 BD2 pre-bound to SJ46423.
For test [13], the target named is B2. Briefly: ITC; ternary, BRD3 BD2 pre-bound to PROTAC SJ46421.
Test [14] addresses T5, BRD2^BD2 (second bromodomain of BRD2, …). The test can be described thus: ITC; ternary complex with PROTAC SJ46421 (BRD2BD2-SJ46421 in cell).
In test [15] the target is KLHDC2 H346/R347 to alanine mutant (UniProt Q9Y2U9 15-361, H346 to alanine | R347 to alanine, H346A and R347A taken as one combined double mutant, because the text lists H346/R347 as one of four patches mutated to alanine; whether they were combined is not printed explicitly). Briefly: ITC; ternary, with SJ46421.
For test [16], the target named is KLHDC2 K291 to alanine mutant (UniProt Q9Y2U9 15-361, K291 to alanine). Briefly: ITC; ternary, with SJ46421.
In test [17] the target is T6, KLHDC2 R56A mutant (UniProt Q9Y2U9 15-361, R56A). Briefly: ITC; ternary, with SJ46421.
Test [18] deals with KLHDC2 R112 to alanine mutant (UniProt Q9Y2U9 15-361, R112 to alanine). Briefly: ITC; ternary, with SJ46421.
Test [19] addresses T6, KLHDC2 R56A mutant. Briefly: ITC; ternary complex with PROTAC SJ46421.

B1: KLHDC2 substrate binding domain (KLHDC2^SBD, 15-361) (domain or fragment)
chain: GPAFESYESMELACPAERSGHVAVSDGRHMFVWGGYKSNQVRGLYDFYLPREELWIYNMETGRWKKINTEGDVPPSMSGSCAVCVDRVLYLFGGHHSRGNTNKFYMLDSRSTDRVLQWERIDCQGIPPSSKDKLGVWVYKNKLIFFGGYGYLPEDKVLGTFEFDETSFWNSSHPRGWNDHVHILDTETFTWSQPITTGKAPSPRAAHACATVGNRGFVFGGRYRDARMNDLHYLNLDTWEWNELIPQGICPVGRSWHSLTPVSSDHLFLFGGFTTDKQPLSDAWTYCISKNEWIQFNHPYTEKPRLWHTACASDEGEVIVFGGCANNLLVHHRAAHSNEILIFSVQP
Usually Kd stands for the concentration at which binding is half-saturated. With B1, the Kd in test [1] was determined as 24.5 nM; in test [2], 95.4 nM; in test [3], 181 nM; in test [4], 109 nM; in test [5], 208 nM; in test [6], 109 nM. Besides, the Kd was 251 nM in test [7]; 19 nM in test [8]; 24.5 nM in [9]; 95.4 nM in test [10]; 181 nM in [11]; 251 nM in test [12]. Besides, the results for the Kd in test [13] and in test [14] were 19 nM and 208 nM, respectively.
Take B2: the Kd in [15] worked out at 50.9 nM; in test [16], 25.6 nM; with KLHDC2 R56A mutant [17], 273 nM; in [18], 39.7 nM; with KLHDC2 R56A mutant [19], 273 nM.
